In FireProtDB (doi:10.1002/prot.1147):

Conditions: Homo sapiens; pH 2.7; Thermal; DSC; Gly-HCl 0.05 M; reversible: yes; whole UniProt chain shown

B1: Lysozyme C wild type, P61626 (protein)
chain: MKALIVLGLVLLSVTVQGKVFERCELARTLKRLGMDGYRGISLANWMCLAKWESGYNTRATNYNAGDRSTDYGIFQINSRYWCNDGKTPGAVNACHLSCSALLQDNIADAVACAKRVVRDPQGIRAWVAWRNRCQNRDVRQYVQGCGV
Tm: 64.9 °C | heat capacity change of unfolding: 1.58 kcal/mol/K | unfolding enthalpy (van 't Hoff): 114 kcal/mol
